# From publication PMC10673995, “Discovery of a novel cardiac-specific myosin modulator using artificial intelligence-based virtual screening” (Nature Communications, 2023)
# B1: bovine β-cardiac myosin S1, Q9BE39 1-1935; P85100 1-199 (domain or fragment)
# heavy: MVDAEMAAFGEAAPYLRKSEKERLEAQTRPFDLKKDVFVPDDKEEFVKATILSREGGKVTAETEHGKTVTVKEDQVLQQNPPKFDKIEDMAMLTFLHEPAVLYNLKERYASWMIYTYSGLFCVTINPYKWLPVYNAEVVAAYRGKKRSEAPPHIFSISDNAYQYMLTDRENQSILITGESGAGKTVNTKRVIQYFAVIAAIGDRSKKEQATGKGTLEDQIIQANPALEAFGNAKTVRNDNSSRFGKFIRIHFGATGKLASADIETYLLEKSRVIFQLKAERDYHIFYQILSNKKPELLDMLLITNNPYDYAFISQGETTVASIDDAEELMATDNAFDVLGFTTEEKNSMYKLTGAIMHFGNMKFKLKQREEQAEPDGTEEADKSAYLMGLNSADLLKGLCHPRVKVGNEYVTKGQNVQQVVYAKGALAKAVYERMFNWMVTRINATLETKQPRQYFIGVLDIAGFEIFDFNSFEQLCINFTNEKLQQFFNHHMFVLEQEEYKKEGIEWEFIDFGMDLQACIDLIEKPMGIMSILEEECMFPKATDMTFKAKLFDNHLGKSSNFQKPRNIKGKPEAHFSLIHYAGTVDYNIIGWLQKNKDPLNETVVDLYKKSSLKMLSSLFANYAGFDTPIEKGKGKAKKGSSFQTVSALHRENLNKLMTNLRSTHPHFVRCIIPNETKSPGVIDNPLVMHQLRCNGVLEGIRICRKGFPNRILYGDFRQRYRILNPAAIPEGQFIDSRKGAEKLLGSLDIDHNQYKFGHTKVFFKAGLLGLLEEMRDERLSRIITRIQAQSRGVLSRMEFKKLLERRDSLLIIQWNIRAFMGVKNWPWMKLYFKIKPLLKSAETEKEIALMKEEFGRLKEALEKSEARRKELEEKMVSLLQEKNDLQLQVQAEQDNLADAEERCDQLIKNKIQLEAKVKEMTERLEDEEEMNAELTAKKRKLEDECSELKRDIDDLELTLAKVEKEKHATENKVKNLTEEMAGLDEIIAKLTKEKKALQEAHQQALDDLQAEEDKVNTLTKAKVKLEQHVDDLEGSLEQEKKVRMDLERAKRKLEGDLKLTQESIMDLENDKQQLDERLKKKDFELNALNARIEDEQALGSQLQKKLKELQARIEELEEELEAERTARAKVEKLRSDLSRELEEISERLEEAGGATSVQIEMNKKREAEFQKMRRDLEEATLQHEATAAALRKKHADSVAELSEQIDNLQRVKQKLEKEKSEFKLELDDVTSNMEQIIKAKANLEKMCRTLEDQMNEHRSKAEETQRSVNDLTSQRAKLQTENGELSRQLDEKEALISQLTRGKLTYTQQLEDLKRQLEEEVKAKNALAHALQSARHDCDLLREQYEEETEAKAELQRVLSKANSEVAQWRTKYETDAIQRTEELEEAKKKLAQRLQDAEEAVEAVNAKCSSLEKTKHRLQNEIEDLMVDVERSNAAAAALDKKQRNFDKILAEWKQKYEESQSELESSQKEARSLSTELFKLKNAYEESLEHLETFKRENKNLQEEISDLTEQLGSSGKTIHELEKVRKQLEAEKLELQSALEEAEASLEQEEGKILRAQLEFNQIKAEMERKLAEKDEEMEQAKRNHLRVVDSLQTSLDAETRSRNEALRVKKKMEGDLNEMEIQLSHANRLAAEAQKQVKSLQSLLKDTQIQLDDAVRANDDLKENIAIVERRNNLLQAELEELRAVVEQTERSRKLAEQELIETSERVQLLHSQNTSLINQKKKMEADLSQLQTEVEEAVQECRNAEEKAKKAITDAAMMAEELKKEQDTSAHLERMKKNMEQTIKDLQHRLDEAEQIALKGGKKQLQKLEARVRELENELEAEQKRNAESVKGMRKSERRIKELTYQTEEDRKNLLRLQDLVDKLQLKVKAYKRQAEEAEEQANTNLSKFRKVQHELDEAEERADIAESQVNKLRAKSRDIGTKGLNEE
# light: not shown
# Target: Rabbit skeletal F-actin (rabbit), P68135
binder,measurement,value
B1,"F-actin concentration dependence of the steady-state ATPase activity of bovine β-cardiac myosin S1 (NADH-coupled assay), Kapp in the absence and in the presence of 100 μmol/L F10",20 µmol/L
